Reference: IntAct's records for PubMed 18166655

B1: Caspase drICE (Drosophila melanogaster (Fruit fly)), O01382 (parent)
chain: MDATNNGESADQVGIRVGNPEQPNDHTDALGSVGSGGAGSSGLVAGSSHPYGSGAIGQLANGYSSPSSSYRKNVAKMVTDRHAAEYNMRHKNRGMALIFNHEHFEVPTLKSRAGTNVDCENLTRVLKQLDFEVTVYKDCRYKDILRTIEYAASQNHSDSDCILVAILSHGEMGYIYAKDTQYKLDNIWSFFTANHCPSLAGKPKLFFIQACQGDRLDGGVTMQRSQTETDGDSSMSYKIPVHADFLIAYSTVPGFYSWRNTTRGSWFMQSLCAELAANGKRLDILTLLTFVCQRVAVDFESCTPDTPEMHQQKQIPCITTMLTRILRFSDKQLAPAGRV
partner: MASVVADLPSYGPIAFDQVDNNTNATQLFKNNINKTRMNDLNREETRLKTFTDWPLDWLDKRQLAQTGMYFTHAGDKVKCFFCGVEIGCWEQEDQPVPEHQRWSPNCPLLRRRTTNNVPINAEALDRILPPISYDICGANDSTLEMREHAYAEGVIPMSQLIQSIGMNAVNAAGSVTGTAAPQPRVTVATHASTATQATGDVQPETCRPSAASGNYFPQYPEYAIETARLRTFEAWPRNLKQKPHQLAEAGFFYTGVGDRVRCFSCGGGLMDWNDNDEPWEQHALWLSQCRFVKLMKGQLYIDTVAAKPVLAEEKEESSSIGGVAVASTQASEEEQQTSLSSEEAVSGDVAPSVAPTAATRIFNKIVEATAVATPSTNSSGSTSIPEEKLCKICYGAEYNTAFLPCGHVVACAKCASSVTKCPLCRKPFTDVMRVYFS
B2: Death-associated inhibitor of apoptosis 2 (Drosophila melanogaster (Fruit fly)), Q24307 (parent)
chain: MTELGMELESVRLATFGEWPLNAPVSAEDLVANGFFATGNWLEAECHFCHVRIDRWEYGDQVAERHRRSSPICSMVLAPNHCGNVPRSQESDNEGNSVVDSPESCSCPDLLLEANRLVTFKDWPNPNITPQALAKAGFYYLNRLDHVKCVWCNGVIAKWEKNDNAFEEHKRFFPQCPRVQMGPLIEFATGKNLDELGIQPTTLPLRPKYACVDARLRTFTDWPISNIQPASALAQAGLYYQKIGDQVRCFHCNIGLRSWQKEDEPWFEHAKWSPKCQFVLLAKGPAYVSEVLATTAANASSQPATAPAPTLQADVLMDEAPAKEALALGIDGGVVRNAIQRKLLSSGCAFSTLDELLHDIFDDAGAGAALEVREPPEPSAPFIEPCQATTSKAASVPIPVADSIPAKPQAAEAVANISKITDEIQKMSVATPNGNLSLEEENRQLKDARLCKVCLDEEVGVVFLPCGHLATCNQCAPSVANCPMCRADIKGFVRTFLS
partner: B1 chain

Variants of: B1
Conditions: with diap1_drome Diap1, Q24306

Variant	effect of a mutation on the interaction
MDATNNGESADQVGIRVGNPEQPNDHTDALGSVGSGGAGSSGLVAGSSHPYGSGAIGQLANGYSSPSSSYRKNVAKMVTDRHAAEYNMRHKNRGMALIFNHEHFEVPTLKSRAGTNVDCENLTRVLKQLDFEVTVYKDCRYKDILRTIEYAASQNHSDSDCILVAILSHGEMGYIYAKDTQYKLDNIWSFFTANHCPSLAGKPKLFFIQAAQGDRLDGGVTMQRSQTETDGDSSMSYKIPVHADFLIAYSTVPGFYSWRNTTRGSWFMQSLCAELAANGKRLDILTLLTFVCQRVAVDFESCTPDTPEMHQQKQIPCITTMLTRILRFSDKQLAPAGRV [C211A]	with no effect

Variants of: B2
Conditions: with drice_drome Drice

Variant	effect of a mutation on the interaction
MTELGMELESVRLATFGEWPLNAPVSAEDLVANGFFATGNWLEAECHFCHVRIDRWEYGDQVAERHRRSSPICSMVLAPNHCGNVPRSQESDNEGNSVVDSPESCSCPDLLLEANRLVTFKDWPNPNITPQALAKAGFYYLNRLDHVKCVWCNGVIAKWEKNANAFEEHKRFFPQCPRVQMGPLIEFATGKNLDELGIQPTTLPLRPKYACVDARLRTFTDWPISNIQPASALAQAGLYYQKIGDQVRCFHCNIGLRSWQKEDEPWFEHAKWSPKCQFVLLAKGPAYVSEVLATTAANASSQPATAPAPTLQADVLMDEAPAKEALALGIDGGVVRNAIQRKLLSSGCAFSTLDELLHDIFDDAGAGAALEVREPPEPSAPFIEPCQATTSKAASVPIPVADSIPAKPQAAEAVANISKITDEIQKMSVATPNGNLSLEEENRQLKDARLCKVCLDEEVGVVFLPCGHLATCNQCAPSVANCPMCRADIKGFVRTFLS [D163A]	with no effect
MTELGMELESVRLATFGEWPLNAPVSAEDLVANGFFATGNWLEAECHFCHVRIDRWEYGDQVAERHRRSSPICSMVLAPNHCGNVPRSQESDNEGNSVVDSPESCSCPDLLLEANRLVTFKDWPNPNITPQALAKAGFYYLNRLDHVKCVWCNGVIAKWEKNDNAFEEHKRFFPQCPRVQMGPLIEFATGKNLDELGIQPTTLPLRPKYACVDARLRTFTDWPISNIQPASALAQAGLYYQKIGDQVRCFHCNIGLRSWQKEAEPWFEHAKWSPKCQFVLLAKGPAYVSEVLATTAANASSQPATAPAPTLQADVLMDEAPAKEALALGIDGGVVRNAIQRKLLSSGCAFSTLDELLHDIFDDAGAGAALEVREPPEPSAPFIEPCQATTSKAASVPIPVADSIPAKPQAAEAVANISKITDEIQKMSVATPNGNLSLEEENRQLKDARLCKVCLDEEVGVVFLPCGHLATCNQCAPSVANCPMCRADIKGFVRTFLS [D263A]	disrupting interaction strength
MTELGMELESVRLATFGEWPLNAPVSAEDLVANGFFATGNWLEAECHFCHVRIDRWEYGDQVAERHRRSSPICSMVLAPNHCGNVPRSQESDNEGNSVVDSPESCSCPDLLLEANRLVTFKDWPNPNITPQALAKAGFYYLNRLDHVKGVWCNGVIAKWEKNDNAFEEHKRFFPQCPRVQMGPLIEFATGKNLDELGIQPTTLPLRPKYACVDARLRTFTDWPISNIQPASALAQAGLYYQKIGDQVRCFHCNIGLRSWQKEDEPWFEHAKWSPKCQFVLLAKGPAYVSEVLATTAANASSQPATAPAPTLQADVLMDEAPAKEALALGIDGGVVRNAIQRKLLSSGCAFSTLDELLHDIFDDAGAGAALEVREPPEPSAPFIEPCQATTSKAASVPIPVADSIPAKPQAAEAVANISKITDEIQKMSVATPNGNLSLEEENRQLKDARLCKVCLDEEVGVVFLPCGHLATCNQCAPSVANCPMCRADIKGFVRTFLS [C149G]	with no effect
MTELGMELESVRLATFGEWPLNAPVSAEDLVANGFFATGNWLEAECHFCHVRIDRWEYGDQVAERHRRSSPICSMVLAPNHCGNVPRSQESDNEGNSVVDSPESCSCPDLLLEANRLVTFKDWPNPNITPQALAKAGFYYLNRLDHVKCVWCNGVIAKWEKNDNAFEEHKRFFPQCPRVQMGPLIEFATGKNLDELGIQPTTLPLRPKYACVDARLRTFTDWPISNIQPASALAQAGLYYQKIGDQVRGFHCNIGLRSWQKEDEPWFEHAKWSPKCQFVLLAKGPAYVSEVLATTAANASSQPATAPAPTLQADVLMDEAPAKEALALGIDGGVVRNAIQRKLLSSGCAFSTLDELLHDIFDDAGAGAALEVREPPEPSAPFIEPCQATTSKAASVPIPVADSIPAKPQAAEAVANISKITDEIQKMSVATPNGNLSLEEENRQLKDARLCKVCLDEEVGVVFLPCGHLATCNQCAPSVANCPMCRADIKGFVRTFLS [C249G]	disrupting interaction strength
MTELGMELESVRLATFGEWPLNAPVSAEDLVANGFFATGNWLEAECHFCHVRIDRWEYGDQVAERHRRSSPICSMVLAPNHCGNVPRSQESDNEGNSVVESPESCSCPDLLLEANRLVTFKDWPNPNITPQALAKAGFYYLNRLDHVKCVWCNGVIAKWEKNDNAFEEHKRFFPQCPRVQMGPLIEFATGKNLDELGIQPTTLPLRPKYACVDARLRTFTDWPISNIQPASALAQAGLYYQKIGDQVRCFHCNIGLRSWQKEDEPWFEHAKWSPKCQFVLLAKGPAYVSEVLATTAANASSQPATAPAPTLQADVLMDEAPAKEALALGIDGGVVRNAIQRKLLSSGCAFSTLDELLHDIFDDAGAGAALEVREPPEPSAPFIEPCQATTSKAASVPIPVADSIPAKPQAAEAVANISKITDEIQKMSVATPNGNLSLEEENRQLKDARLCKVCLDEEVGVVFLPCGHLATCNQCAPSVANCPMCRADIKGFVRTFLS [D100E]	disrupting interaction strength
